{"source": "paper PMC3154093", "about": "(Science (New York, N.Y.), 2011)", "binders": {"B1": {"name": "mouse RPTPσ sEcto-Fc (Fc fusion)", "chain": "EEPPRFIREPKDQIGVSGGVASFVCQATGDPKPRVTWNKKGKKVNSQRFETIDFDESSGAVLRIQPLRTPRDENVYECVAQNSVGEITIHAKLTVLREDQLPPGFPNIDMGPQLKVVERTRTATMLCAASGNPDPEITWFKDFLPVDPSASNGRIKQLRSGALQIESSEETDQGKYECVATNSAGVRYSSPANLYVRVRRVAPRFSILPMSHEIMPGGNVNITCVAVGSPMPYVKWMQGAEDLTPEDDMPVGRNVLELTDVKDSANYTCVAMSSLGVIEAVAQITVKSLPKAPGTPVVTENTATSITVTWDSGNPDPVSYYVIEYKSKSQDGPYQIKEDITTTRYSIGGLSPNSEYEIWVSAVNSIGQGPPSESVVTRTGEQAPASAPRNVQARMLSATTMIVQWEEPVEPNGLIRGYRVYYTMEPEHPVGNWQKHNVDDSLLTTVGSLLEDETYTVRVLAFTSVGDGPLSDPIQVKTQQGVPGQPMNLRAEAKSETSIGLSWSAPRQESVIKYELLFREGDRGREVGRTFDPTTAFVVEDLKPNTEYAFRLAARSPQGLGAFTAVVRQRTLQAISPKNFKVKMIMKTSVLLSWEFPDNYNSPTPYKIQYNGLTLDVDGRTTKKLITHLKPHTFYNFVLTNRGSSLGGLQQTVTARTAFNMLSGKPSVAPKPDNDGFIVVYLPDGQSPVTVQNYFIVMVPLRKSRGGQFPVLLGSPEDMDLEELIQDISRLQRRSLRHSRQLEVPRPYIAARFSILPAVFHPGNQKQYGGFDNRGLEPGHRYVLFVLAVLQKNEPTFAASPFSDPFQLDNPDPQPIVDGEEG"}}, "key": {"[1]": {"biological_target": "Neurocan-alkaline phosphatase (UniProt P55066 23-1268, chondroitin sulfate glycosaminoglycan chains)", "sequence (P55066 23-1268)": "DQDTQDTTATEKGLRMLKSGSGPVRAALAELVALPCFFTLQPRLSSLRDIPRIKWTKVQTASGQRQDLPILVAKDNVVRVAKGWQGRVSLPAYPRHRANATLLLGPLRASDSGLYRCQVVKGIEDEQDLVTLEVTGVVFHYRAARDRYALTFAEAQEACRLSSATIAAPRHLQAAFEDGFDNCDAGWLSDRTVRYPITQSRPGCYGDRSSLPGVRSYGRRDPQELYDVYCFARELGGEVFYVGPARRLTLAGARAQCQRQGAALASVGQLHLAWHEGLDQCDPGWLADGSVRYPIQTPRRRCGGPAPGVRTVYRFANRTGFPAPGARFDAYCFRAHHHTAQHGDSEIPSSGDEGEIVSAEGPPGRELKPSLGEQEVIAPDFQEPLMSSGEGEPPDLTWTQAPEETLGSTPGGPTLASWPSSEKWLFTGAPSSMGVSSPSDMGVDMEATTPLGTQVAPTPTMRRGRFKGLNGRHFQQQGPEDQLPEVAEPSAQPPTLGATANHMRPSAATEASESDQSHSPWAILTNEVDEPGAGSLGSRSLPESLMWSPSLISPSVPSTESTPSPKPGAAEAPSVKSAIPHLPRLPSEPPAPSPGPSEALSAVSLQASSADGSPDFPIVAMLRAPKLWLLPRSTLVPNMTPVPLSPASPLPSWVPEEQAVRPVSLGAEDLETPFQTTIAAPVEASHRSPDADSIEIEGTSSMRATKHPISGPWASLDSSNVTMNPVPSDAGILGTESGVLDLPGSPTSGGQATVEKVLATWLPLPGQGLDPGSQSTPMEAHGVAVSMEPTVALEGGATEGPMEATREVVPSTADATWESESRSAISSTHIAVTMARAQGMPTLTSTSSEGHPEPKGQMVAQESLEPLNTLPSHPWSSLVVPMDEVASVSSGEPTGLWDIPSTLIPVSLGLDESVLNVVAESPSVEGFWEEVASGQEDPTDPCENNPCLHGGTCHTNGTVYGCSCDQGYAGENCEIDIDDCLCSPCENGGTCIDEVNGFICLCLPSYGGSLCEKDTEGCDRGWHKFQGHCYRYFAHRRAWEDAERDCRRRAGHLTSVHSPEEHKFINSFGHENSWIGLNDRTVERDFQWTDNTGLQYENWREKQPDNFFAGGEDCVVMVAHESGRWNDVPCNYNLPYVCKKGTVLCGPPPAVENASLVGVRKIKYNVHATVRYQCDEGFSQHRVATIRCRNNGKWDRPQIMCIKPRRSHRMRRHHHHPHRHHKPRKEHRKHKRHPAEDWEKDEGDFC", "test": "solid-phase binding assay"}, "glypican-2-AP": {"biological_target": "T1, glypican-2-AP (UniProt Q8BKV1 22-556, heparan sulfate glycosaminoglycan chains)", "T1 sequence (looked up)": "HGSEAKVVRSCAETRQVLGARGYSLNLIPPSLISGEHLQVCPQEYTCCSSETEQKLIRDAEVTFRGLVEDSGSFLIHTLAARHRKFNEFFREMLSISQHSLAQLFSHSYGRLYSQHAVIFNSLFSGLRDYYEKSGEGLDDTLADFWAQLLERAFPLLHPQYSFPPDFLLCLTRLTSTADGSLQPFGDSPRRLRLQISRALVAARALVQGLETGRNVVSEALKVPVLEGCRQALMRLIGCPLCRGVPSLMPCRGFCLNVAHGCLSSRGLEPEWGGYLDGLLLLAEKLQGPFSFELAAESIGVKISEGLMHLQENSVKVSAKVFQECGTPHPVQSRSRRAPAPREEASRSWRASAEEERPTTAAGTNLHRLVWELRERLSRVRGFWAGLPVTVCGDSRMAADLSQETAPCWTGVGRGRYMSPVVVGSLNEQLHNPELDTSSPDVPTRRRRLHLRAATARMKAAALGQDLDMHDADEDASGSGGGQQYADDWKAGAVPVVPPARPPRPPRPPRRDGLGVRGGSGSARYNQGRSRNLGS", "test": "solid-phase binding assay"}}, "data": [{"binder": "B1", "values": [{"measurement": "Kd", "setting": "[1]", "value": "~21", "unit": "nM"}, {"measurement": "Kd", "setting": "glypican-2-AP", "value": "~10", "unit": "nM"}]}]}
